Data: the domain aggregation screens of Martell et al. (2025)

Test: soluble fraction after stress (log2 fold change); higher = more stays soluble; pooled small domains, quantitative proteomics
Settings: stress: 75 degC
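Also: 20 min heating vs room temperature control held 20 min.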

Sequence | soluble fraction (log2)
HMSHSVLIDISQLRIGMYIQLDVGWMHHPFPVSSFRVASLEQIEALRTLNLAQVRYFPAKSDPV | -3.51
HMSIAEMSGARKSAILLLALDEDSAAEIFKYLSAGEVQEISMEMAKLNQVSHDDMKAVLEAFHKETEEFV | -0.821
HMSIAKIIGDRIRAYRNQKGWSQEYLAEKADVHHTYIGQLERGEKNATIESISKIAGALGVSLSRLFEN | -0.659
HMSIEHVPGYTTLSKREQEIVHALLTRKTPEELADDLSISINTLNKHISHIYHKLGIRGRMQLFDYA | -1.1
HMSIEIKTIDVKHADLFQLQDILRNLYPELNIVPDQRNNKLILQGKRELLVEAERLTLQLDTE | 0.248
HMSIESPEEFNAKFPPGSEIYATNIQKNAIVQSPANAKGDVEILANSMRLTINFRFISKRDT | -1.6
HMSIGPQMAGRRVLSGDLIARLEAFEGTVVLGRGVAREDALLIATQAGHVRWEPASRRLWVDSTA | -2.38
HMSIHPRDKADLGTALSKWKKGALDDKQLELEVARVFMRTYGKKLEGQALNKAVAAWVAALTQSKK | -0.171
HMSINIDEEKKILGPNADQIIKGITTWGQGLVSKGIWSDADFEEFKIFAATGNGINALNKVRKYY | -0.338
HMSIQMPDLSITPVTDAKKKIESLQLQYKEVGEYNDSVIAGYVIRTEPASGSYLNEDEEVIIYVSKG | -0.776
HMSISEFNYTEFNGLVEKGQVSEVTISGREIEGRLTSGESFKTYSPETDNSALVGDLLKNNVKINGKP | 0.0159
HMSITKDNLSIGTNIRISGFSDIGRIISIPNKGNQVQVQIGSAKMNIKINSIVEIIKEEKDFNKNISN | -1.48
HMSIYMNIYNEFKKYIIANVYKYDDKLPSVRSIALEYGINPNTVQRAFQLLEDEGYIKTISKKGVYVNYR | -0.745
HMSKAYLSVESNISGARVFVDGQKEGTTPLSDVLLSAGEHLILVKKQGYETYQKRVRFQKGRSMSLYVDLS | -0.0864
HMSKDQKKFFIEIVSIRGFGSQIGISILNKLSIPQIINAIKTQNKKEISSIPGIGQKMTERLILELNNKFK | -0.183
HMSKININTITESELKELPISTVKQKAIQDYLIDRGFISNIYDLLDIKEITSDDVSLLKKVVNVKLPY | -0.489
HMSKIVPVAYSQFLKDVKNGNVSQVEIRGNNIKGINNNGSSFSTYAPNDLSLIDKLEKSNVEIIVMPLE | -0.368
HMSKKLLVLQTSDDAKAKDVLSQNGYQLDDGDKLSIIETEQTKMADVIKLLSDNAIDIEDVQHVH | 0.14
HMSKLQETEIPVALEVEKIPGLSNELKQKLLKIKPQTIGQASRISGITPAAISILMIYIKKNESISAVK | -1.9
HMSKLQKTKYAGVYFTEDTQTRVKTYVARIVLAGIIDTEVVVGHSNDQHRTNAAIAYQRRLELIQEAKN | -4
HMSKLSLREIVKKFEEQIIQLHKRGLNHSEISREIVTKNSIDLGDSHIDSLRRAISVHLQTP | -0.755
HMSKPIREVAYETLKNAIVTGEIPAGSRIVETEYAERMHISRTPLREALRKLERDGLVEYVVRRGVVVRAF | -1.63
HMSKPTLTLKSNAYPYNLNGERINNYLGFTYIKKGATLNYQGSKRINGQNYYYIGDGAYIKNTTVGSTNN | -1.23
HMSKQDRRIRRTRRLLKESLIQLMQEKEFMNISVREVTERADLNRGTFYLHYQDTRHLLQDIENETL | -3.3
HMSKQEFVDRLRVSLSGKISPASVEDNARYYEDYINTHIRLGEPEEDVLEGLGDPRLIARSIVAAESV | -0.0989
HMSKQLGFKIKTARRKLNISQGDLSKKLEISPSYLNLIESGKRKVSTDLLMKASEILNLDLKKL | -0.966

Sequence | soluble fraction (log2)
HMSKQQFLDELAARLREEGAELLVAENLNFYRSYIEEEVAKGRSEEEVLAELGNPALIARSILDAAGF | -0.219
HMSKSIELMNEIKKYIEEYYLQYRQSPSTTKIAEAVGIARGTAYKYLVEMSERNMIEYDGQEISTEVTRKY | -1.43
HMSKSKSEIDKDPHFWSSLFQRIGEGESLRKIAKDSKIPKSTLWAWIRNDPQLALRYSEAQQ | 0.0521
HMSLAATLSPREIDTVRLIAVGSSNKEIARQLGIAETTVKIHVQHILRKLNLTSRVQVAVFANAEGII | -0.931
HMSLAISGRNQLHGIIEEVRSDGLLSQIYLRVGDQVLTAVITRDAVAELKLKRGDTAVAIMKSTEVMIARE | 0.38
HMSLDLERAVALLSLPRPVGNHPEDGELVEAGIGRYGPYVKHGSKYANLPDADEVFTIGMNRAVEVLAAK | -0.109
HMSLDTASDKELLGLIVSEPIATRVLDAFRTLDATLFRTTPAELAAAAGVSSEHAQKIKAVAEIAARMLKP | -0.343
HMSLEDYVIIKNKTVKVYETEFDGAPVVTSSSVGQKLILVEYNDNFAKILYRAKDGLDYVGYIKRKDVYVR | -2.55
HMSLLLTPREASVWASEYLGKKVTSNNIIYLLNYGKIANHSTDLKENLIDKNELKIYYDSTIKSQKH | -0.755
HMSLLQDRQRHEALAALGYYRGSVSAAWGAASVEALKAAQAALGVEVDGKWGPKTEDVIQAALGT | -0.272
HMSLLQTRQRHEALAALGFFKGDVAAEWSAASTEALRAAQASLGIRVDGKWGPQTEDAIGKALAERQG | 0.0108
HMSLLTIDELSQATGVSVRTLRYYVSSGVLDKPTGETRNARYGTHHLDQVRNIKKLQEEGLTLNRILEIKK | -2.14
HMSLNHDIWVQELKEKRSGYGISQSRLAIAAGMTRQYLSDIETGKVLPSAERKAAITEALERFNPD | -0.348
HMSLNNAHNTIFPRIIELMEMKQLENVLLIGGGIIPRKDIESLESSGVTKLYGPGTPVKETIEFITNWVK | -0.216
HMSLPKVLVPTDITVSQLAKYLEVDAIAIVKKLFGLGVVASLNQRLENEQMQLLGQEFGKDIIFTEN | -1.39
HMSLPTSDWKRALSLFDEALSLPPDARDAWLAHTIAREPAVSPLLQKLLGAHRRVETNDILATLPR | -0.534
HMSLQNTMANFAGGVLVLFLKPFKAGDYIVTKDGEGTVASIGLVYTTLLTIENKRIVIPNSSISNSPITN | 0.159
HMSLRGEKTYDEAHQKLIKSAVELFKNPLVSPEKITVSQIAKHAGVSVATAYNHFPENKLDIYGSIF | -0.203
HMSLRVIEIFGTPQQMSARISLMDGSVTDVKVGQSIPGTSYKVASITGNGVWIQNGTAVSYTHL | -2.41
HMSLSDADVERLLEVAIDIESLEEREGLYYQANESEPYSGWGKLMYDSGQVERLVPYKDGRWEGLWTIW | -1.07
HMSLSISSLVFFRKNAGLTQADIATAMSITQSAVARLEKRLLSDSDVTLKTLERYAEAVGIRMHVDFEP | 0.01
HMSLSKEEFETISKQVLELAGAGPIPVKELLQKMERTSKEKAWKVIEFLQAEDKIVPDATGRIQL | -0.727
HMSLSKQETEFLTTFSASGKRVFTYQQATDYWQSKVAATNVLGRLVRKGWLQRLERGLYMIIPLEAGPERF | -1.71
HMSLSPAATRSRGYPSVLLTMKAPERLVSAAGPDRRAYLVGTDPLVIELPGVKGLYKVDPDQIVFE | -0.0024
HMSLTEEQVDSGLKEIRLALLEADVALPVVKNFITNIKPKAIGQEIIRSTSPGQMIVKIVYDELVSIL | -0.066
HMSLTEESAKSLIGLTENEAVKVAAERGWTVRVAMRDGEAFMLTQDYSENRVNLTVMKTLVTAVTI | -3.32

Sequence | soluble fraction (log2)
HMSLTMPKLIGMHLFQAERTLNYYGFQYKVEGPDSASVVIDQYPKEGVTVDPHYPITLKIGPSA | -2.18
HMSLYGGYEIDIIKEEVVDAGIKLLRRRVIVADQRGISVYEGKPTFASDDQVLIKEGQYQIDKLG | -2.46
HMSMHVHTPNPDFKPSNTNALQEGQLVEHPKFGFGKVQKIETEGLNKKASIQFEHFGEKTLLLSFAKLRII | -1.47
HMSMLGTEQRVLVLGPARKGEGFLMARTDNNRIVNFEGPLSLVDTMVRVKVTDVYPHSLGGQLL | -1.51
HMSMPDERMLTSWMMARVKAAGKTMTRDAWNEFFERSNDSMDHMDMEMEKLLSYVYDKDGITLEDVEA | -0.223
HMSMQIILLDKVVNLGGLGDVVKVKDGYARNYLIPQGKAKRANTANLAEFEARRVELERLAAEQLAQAQA | -0.0666
HMSMRIDTNTLNYYVQNAQISLSVLRTKINNLDQFLSGEKQPTFNQLSEIAKKINVPTGLLLLNKS | -2.17
HMSMSKISNLLEIMMIIQYKGLTTASELAQSLGVDKKTVYRYINSLSKANIPIYTKKGRYGGFYIDKNF | -1.29
HMSMSTVGERIKKKRKNLNFTQQELAAKLNISAQAVSKWENGVALPDLGLMPKLAQVLESTVDGLLGYQGA | -0.756
HMSMTLSVLDDVRGLSESRRKQLFHSFGSIKKLREQSKETLMSIPYLPEKVALELYDKLHEE | -0.243
HMSMVGSVNKQGRPFALLRVDNLLYQVKVGDYLGQNYGRITQIDETQIALREIVQDAAGEWIERPGVLQL | 0.294
HMSNATELVYDDGRKLLISYETLVGGYHPDLGWIRTAKTYSISTDKHIRNYFNNVTNPRVVGEDILETLKI | 0.109
HMSNDRSYLARLQDYYAEHRALPSYASIGALLGLRSKSSVAALVARLKLAGFVESTPDRRLAPTRRFF | -4.01
HMSNEWIEISAKTVDDAINEGLIRLGTTTDKMDVEVLEKESAGFLGFIGKHDAKIRVRFKEV | -0.0738
HMSNGYVTAKTTVNVRKSASESGERLGVIYQGDKLELVMNQADGWTKVKYKGQTAYVKSEFM | -1.27
HMSNHYETLGVPRDASQEDIKRAYRRLARKLHPDVAGPGKAEEFKAVNEAYAVLSDEESRRMYDLGGDDAL | 0.157
HMSNIQLVENLYRLRKAHHYTQQEISDLLNISRQAYSNYETSKRTPDLDSLMRLADIYGVSLDQLVNHP | -1.93
HMSNLENSLNESLSLLKSNKYNEALEILKKIEIEDSRVFFLLGTIYSVMKNINLGEEFLIKASK | -1.64
HMSNLGLQIVRTLTDAGKGVVFITHKLKEALTIADRINVLRRGKVVGDADPKTASESQIAEMMVGRPVQL | -0.0755
HMSNMWVWSKLSGIQWMDAWEDRFHGNPNTVITRLKTNKTVRVEVYTETEQEALDIKKLFGGSIRKLV | -3.09
HMSNRFIQFRQRAIDWLNSDRDFNAGILLLEESGFKPGVVAKLKRHGVNGPEAKKRLKFLINELVKAWA | -1.2
HMSNVKVYPNPTSGKLTIDAENYKGVEVYDTSGRLIVKSELRTIDLEEQSKGLYLLKVNANGTTQEFKVFK | -0.0433
HMSNYLKSVEVFDPITNKWSYVSAMKVRRGYVAVVATMDRLYAIGGYDGENYLSTVEMYNPDTN | 0.108
HMSPAVSLITGKLGAETYYKQGLKKAKEKDYEGALDDLIKAYEFFPDKKIKTQVDKLASFLGKPPIL | -0.259
